From PMC6701479

Key:
[1] = biological target: H3K9me3 containing chromatin fibers (12 × 601 arrays with recombinant human histone octamer) (human); assay: single-molecule TIRF (smTIRF); chromatin fibers immobilised; 3 nM Atto 532-labeled HP1α with 100 nM KAP1; 50 mM Hepes, 130 mM KCl, 10% glycerol; 22°C
[2] = biological target: H3K9me3 containing chromatin fibers (12 × 601 arrays with recombinant human histone octamer) (human); assay: single-molecule TIRF (smTIRF); chromatin fibers immobilised; 3 nM Atto 532-labeled HP1α with 50 nM KAP1; 50 mM Hepes, 130 mM KCl, 10% glycerol; 22°C
[3] = biological target: H3K9me3 containing chromatin fibers (12 × 601 arrays with recombinant human histone octamer) (human); assay: single-molecule TIRF (smTIRF); chromatin fibers immobilised; 3 nM Atto 532-labeled HP1α with 400 nM KAP1; 50 mM Hepes, 130 mM KCl, 10% glycerol; 22°C
[4] = biological target: H3K9me3 containing chromatin fibers (12 × 601 arrays with recombinant human histone octamer) (human); assay: single-molecule TIRF (smTIRF); chromatin fibers immobilised; 3 nM Atto 532-labeled HP1α with 200 nM KAP1; 50 mM Hepes, 130 mM KCl, 10% glycerol; 22°C

Atto 532–labeled HP1α, sequence (P45973 whole entry): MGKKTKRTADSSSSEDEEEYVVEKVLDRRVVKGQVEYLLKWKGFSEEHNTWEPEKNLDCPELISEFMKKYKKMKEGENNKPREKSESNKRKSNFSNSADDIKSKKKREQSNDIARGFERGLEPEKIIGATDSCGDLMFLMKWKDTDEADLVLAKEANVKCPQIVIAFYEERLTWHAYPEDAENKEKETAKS

- kon [1]: 1.42e+06 M⁻¹ s⁻¹
- τ (off,1) [1]: 0.28 s
- τ (off,2) [1]: 5.79 s
- kon [2]: 1.03e+06 M⁻¹ s⁻¹
- τ (off,1) [2]: 0.29 s
- τ (off,2) [2]: 3.64 s
- kon [3]: 770000 M⁻¹ s⁻¹
- τ (off,1) [3]: 0.23 s
- τ (off,2) [3]: 5.03 s
- kon [4]: 1.43e+06 M⁻¹ s⁻¹
- τ (off,1) [4]: 0.27 s
- τ (off,2) [4]: 5.47 s
Substance: Atto 532–labeled HP1α (from UniProt P45973 1-191) (natural protein)
